Values quoted from earlier work in PMC2790341.

Key:
NRP1 (Homo sapiens) = NRP1 (Homo sapiens) (UniProt O14786)
VEGFR2 (Homo sapiens) = VEGFR2 (Homo sapiens) (UniProt P35968)
VEGFR1 (Homo sapiens) = VEGFR1 (Homo sapiens) (UniProt P17948)
UniProt P17948, sequence (P17948 27-1338): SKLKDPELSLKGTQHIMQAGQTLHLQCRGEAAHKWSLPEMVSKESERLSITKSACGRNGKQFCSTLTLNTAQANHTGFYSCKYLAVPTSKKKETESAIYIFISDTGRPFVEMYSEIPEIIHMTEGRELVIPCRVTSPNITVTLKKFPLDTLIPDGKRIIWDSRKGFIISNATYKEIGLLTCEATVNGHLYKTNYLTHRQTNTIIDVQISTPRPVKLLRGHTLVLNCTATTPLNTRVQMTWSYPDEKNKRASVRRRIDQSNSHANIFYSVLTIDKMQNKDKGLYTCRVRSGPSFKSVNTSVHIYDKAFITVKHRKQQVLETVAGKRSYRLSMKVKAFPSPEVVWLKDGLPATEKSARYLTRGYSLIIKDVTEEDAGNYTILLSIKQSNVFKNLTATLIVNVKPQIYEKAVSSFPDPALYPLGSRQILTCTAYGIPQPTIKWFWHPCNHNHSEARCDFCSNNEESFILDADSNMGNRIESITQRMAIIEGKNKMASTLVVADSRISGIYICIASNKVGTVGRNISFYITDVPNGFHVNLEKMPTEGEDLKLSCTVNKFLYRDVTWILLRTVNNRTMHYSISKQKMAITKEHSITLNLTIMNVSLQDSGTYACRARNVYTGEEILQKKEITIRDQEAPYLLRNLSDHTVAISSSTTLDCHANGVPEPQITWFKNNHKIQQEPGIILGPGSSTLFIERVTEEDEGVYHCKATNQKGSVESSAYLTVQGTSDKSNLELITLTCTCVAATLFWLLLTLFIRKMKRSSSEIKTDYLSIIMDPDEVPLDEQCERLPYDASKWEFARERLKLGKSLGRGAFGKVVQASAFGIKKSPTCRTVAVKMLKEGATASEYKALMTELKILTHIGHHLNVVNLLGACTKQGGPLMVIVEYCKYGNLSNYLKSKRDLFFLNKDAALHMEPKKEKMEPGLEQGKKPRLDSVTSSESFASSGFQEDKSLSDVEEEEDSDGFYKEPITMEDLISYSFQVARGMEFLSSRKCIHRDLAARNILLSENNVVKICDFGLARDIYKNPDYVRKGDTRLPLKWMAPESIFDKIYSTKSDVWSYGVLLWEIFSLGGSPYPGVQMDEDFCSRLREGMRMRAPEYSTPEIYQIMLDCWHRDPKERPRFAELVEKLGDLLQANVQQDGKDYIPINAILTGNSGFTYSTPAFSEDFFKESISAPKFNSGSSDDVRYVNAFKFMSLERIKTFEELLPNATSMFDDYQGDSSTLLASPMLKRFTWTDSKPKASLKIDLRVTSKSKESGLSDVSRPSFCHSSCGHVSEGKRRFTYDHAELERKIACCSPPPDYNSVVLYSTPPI

UniProt O14786, sequence (O14786 22-923): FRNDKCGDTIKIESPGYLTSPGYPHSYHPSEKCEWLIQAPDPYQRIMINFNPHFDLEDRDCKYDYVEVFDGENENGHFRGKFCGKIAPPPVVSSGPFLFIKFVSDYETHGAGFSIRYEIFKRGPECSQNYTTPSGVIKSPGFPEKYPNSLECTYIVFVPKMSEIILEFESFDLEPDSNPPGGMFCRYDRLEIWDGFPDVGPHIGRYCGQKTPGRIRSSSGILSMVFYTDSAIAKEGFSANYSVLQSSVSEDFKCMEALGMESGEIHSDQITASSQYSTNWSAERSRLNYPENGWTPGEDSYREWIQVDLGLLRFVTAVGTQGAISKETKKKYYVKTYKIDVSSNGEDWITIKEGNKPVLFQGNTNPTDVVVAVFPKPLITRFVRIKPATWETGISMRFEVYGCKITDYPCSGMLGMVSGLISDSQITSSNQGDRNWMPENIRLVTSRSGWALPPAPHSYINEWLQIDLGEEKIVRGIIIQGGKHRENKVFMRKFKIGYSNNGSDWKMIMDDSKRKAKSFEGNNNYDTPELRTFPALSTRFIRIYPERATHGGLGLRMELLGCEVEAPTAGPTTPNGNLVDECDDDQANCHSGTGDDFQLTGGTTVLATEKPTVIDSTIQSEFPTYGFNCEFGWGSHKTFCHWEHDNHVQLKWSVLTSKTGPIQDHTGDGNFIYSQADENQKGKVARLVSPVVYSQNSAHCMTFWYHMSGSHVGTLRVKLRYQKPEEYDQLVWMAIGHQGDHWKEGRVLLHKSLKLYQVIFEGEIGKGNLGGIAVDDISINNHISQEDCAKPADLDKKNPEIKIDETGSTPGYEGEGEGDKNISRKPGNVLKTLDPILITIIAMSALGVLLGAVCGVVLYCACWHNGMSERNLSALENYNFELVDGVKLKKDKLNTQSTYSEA
UniProt P35968, sequence (P35968 20-1356): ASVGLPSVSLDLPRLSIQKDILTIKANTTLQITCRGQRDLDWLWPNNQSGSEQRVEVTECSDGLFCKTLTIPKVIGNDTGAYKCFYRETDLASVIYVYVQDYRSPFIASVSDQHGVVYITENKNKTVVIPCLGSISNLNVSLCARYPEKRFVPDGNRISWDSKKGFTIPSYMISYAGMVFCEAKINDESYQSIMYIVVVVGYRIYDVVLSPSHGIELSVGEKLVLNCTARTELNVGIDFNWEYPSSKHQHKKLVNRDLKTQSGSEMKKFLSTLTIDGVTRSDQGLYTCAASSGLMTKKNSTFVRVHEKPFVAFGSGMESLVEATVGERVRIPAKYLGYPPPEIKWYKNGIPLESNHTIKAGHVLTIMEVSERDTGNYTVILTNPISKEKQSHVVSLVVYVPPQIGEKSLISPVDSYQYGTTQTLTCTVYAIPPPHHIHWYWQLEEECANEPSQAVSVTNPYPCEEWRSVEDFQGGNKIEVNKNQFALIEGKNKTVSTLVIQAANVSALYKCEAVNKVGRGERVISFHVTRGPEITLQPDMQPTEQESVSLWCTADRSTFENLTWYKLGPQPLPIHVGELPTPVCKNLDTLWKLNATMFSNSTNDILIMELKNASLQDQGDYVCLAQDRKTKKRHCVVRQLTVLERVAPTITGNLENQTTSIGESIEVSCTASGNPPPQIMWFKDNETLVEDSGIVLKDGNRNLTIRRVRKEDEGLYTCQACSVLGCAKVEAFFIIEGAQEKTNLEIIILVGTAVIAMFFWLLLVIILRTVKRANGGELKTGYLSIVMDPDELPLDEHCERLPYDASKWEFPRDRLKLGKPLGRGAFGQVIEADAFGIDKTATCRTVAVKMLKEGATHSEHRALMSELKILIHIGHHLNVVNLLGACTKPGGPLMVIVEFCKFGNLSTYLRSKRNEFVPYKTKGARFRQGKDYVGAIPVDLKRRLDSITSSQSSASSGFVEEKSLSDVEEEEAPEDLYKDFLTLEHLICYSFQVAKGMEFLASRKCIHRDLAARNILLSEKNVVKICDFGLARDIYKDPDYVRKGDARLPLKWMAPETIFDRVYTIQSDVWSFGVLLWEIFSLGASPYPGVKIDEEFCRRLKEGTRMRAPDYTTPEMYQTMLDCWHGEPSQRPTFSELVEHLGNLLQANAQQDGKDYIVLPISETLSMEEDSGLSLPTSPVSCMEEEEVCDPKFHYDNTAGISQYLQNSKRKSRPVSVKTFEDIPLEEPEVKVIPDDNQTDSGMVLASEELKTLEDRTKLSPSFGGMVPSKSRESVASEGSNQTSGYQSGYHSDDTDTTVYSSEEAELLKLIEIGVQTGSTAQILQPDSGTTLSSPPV

Row | Substance | Kd (NRP1 (Homo sapiens)) [nM] | Kd (VEGFR2 (Homo sapiens)) [nM] | Kd (VEGFR1 (Homo sapiens)) [nM]
1 | VEGF165 (from UniProt P15692) | 0.312 |  | 
2 | VEGF (from UniProt P15692) |  | 0.1 | 0.033
